Two molecules from patent US20060270591A1, “Androgen receptor coregulators” (priority 2002, published 2006) can be followed below.

Assay [1] has as its target T1, GR (Homo sapiens, UniProt P04150).
T1 sequence (P04150 1-777): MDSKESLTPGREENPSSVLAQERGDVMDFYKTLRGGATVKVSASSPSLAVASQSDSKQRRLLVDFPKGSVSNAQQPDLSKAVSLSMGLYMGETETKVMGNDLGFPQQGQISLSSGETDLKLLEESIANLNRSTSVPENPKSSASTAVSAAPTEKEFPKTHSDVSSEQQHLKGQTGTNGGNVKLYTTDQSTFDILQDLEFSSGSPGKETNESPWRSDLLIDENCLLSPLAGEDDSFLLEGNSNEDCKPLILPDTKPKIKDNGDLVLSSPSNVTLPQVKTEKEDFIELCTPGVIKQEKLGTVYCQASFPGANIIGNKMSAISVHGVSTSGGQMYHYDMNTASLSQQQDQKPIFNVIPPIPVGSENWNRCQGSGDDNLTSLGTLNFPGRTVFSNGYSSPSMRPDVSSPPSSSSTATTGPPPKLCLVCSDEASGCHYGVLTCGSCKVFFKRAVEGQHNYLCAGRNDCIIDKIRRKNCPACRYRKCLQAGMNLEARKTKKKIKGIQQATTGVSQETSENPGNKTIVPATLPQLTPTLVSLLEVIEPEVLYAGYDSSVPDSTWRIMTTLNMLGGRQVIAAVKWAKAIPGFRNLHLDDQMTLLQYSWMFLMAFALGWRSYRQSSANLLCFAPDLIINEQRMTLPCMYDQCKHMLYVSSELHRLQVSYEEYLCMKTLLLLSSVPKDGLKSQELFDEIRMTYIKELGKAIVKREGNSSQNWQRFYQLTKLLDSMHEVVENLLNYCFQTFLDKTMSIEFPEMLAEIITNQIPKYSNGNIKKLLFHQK
Kind of assay: GR transactivation reporter gene assay (Example 2). In kind it is cell-based. Also noted: expressed in transfected cells; host or cells: PC-3. On the procedure: 12. […] PC-3 (A) or DU145 (B) cells were transfected with MMTV-CAT (2.5 μg), steroid receptor expression plasmid (AR, PR, or GR; 1.0 μg for PC-3 and 0.75 μg for DU145), and pSG5-C′-ARA54 (C′) or pSG5-mt-ARA54 (mt) (8.0 μg for PC-3 and 6.75 μg for DU145), with (for DU145) or without (for PC-3) pSG5-fl-ARA54 (2.25 μg). The total amount of DNA was adjusted to 12.5-13.25 μg with pSG5 for each transfection. […] The CAT activity is presented relative to that of vector alone with cognate ligand in each panel (black bars; set as 100%). Values represent the mean±SD of at least three determinations.
394. The human prostate cancer cell lines, LNCaP, PC-3, and DU145, were maintained in Dulbecco's minimum essential medium (DMEM) containing 5% fetal calf serum (FCS). Transfections using the calcium phosphate precipitation method and chloramphenicol acetyltransferase (CAT) and luciferase (Luc) assays were performed as previously described (Miyamoto et al. (1998) Proc. Natl. Acad. Sci. U.S.A. 95, 7379-7384; Yeh et al. (1999) Endocrine 11, 195-202; Miyamoto et al. (1998) Proc. Natl. Acad. Sci. U.S.A. 95, 11083-11088). Briefly, 1-4×10^5 cells were plated on 35-mm or 60-mm dishes 24 h before adding the precipitation mix containing a CAT or Luc reporter gene and a β-galactosidase expression plasmid (pCMV-β-gal) as an internal control for normalization of transfection efficiency. The medium was changed to phenol-red-free DMEM with 5% charcoal-stripped FCS 1 h before transfection. In each experiment, the total amount of transfected DNA per dish was maintained as a constant by addition of empty expression vector (pSG5 or pVP16, as appropriate). […] The cells were then harvested and whole cell extracts were used for CAT or Luc assay. The CAT activity was quantitated with a PhosphorImager (Molecular Dynamics). The Luc assay was determined using a Dual-Luciferase Reporter Assay System (Promega) and luminometer.
A general note: Reporter assays use an easily measured gene product as a stand-in for the process of interest.

The test system of assay [2] is AR. Kind of assay: AR transactivation assay, MMTV-CAT reporter, transient transfection (Example 1). In kind it is cell-based, human. The method, then:
Human prostate cancer DU145 or PC3 cells, or human lung carcinoma cells NCI H1299 were grown in Dulbecco's minimal essential medium (DMEM) containing penicillin (25 U/ml), streptomycin (25˜g/ml), and 5% fetal calf serum (FCS). One hour before transfection, the medium was changed to DMEM with 5% charcoal-stripped FCS. […] A β-galactosidase expression plasmid, pCMV-β-gal, was used as an internal control for transfection efficiency.
The medium was changed 24 hr posttransfection and the cells treated with either steroid hormones or hydroxyflutamide, and cultured for an additional 24 hr. Cells were harvested and assayed for CAT activity after the cell lysates were normalized by using β-galactosidaseas an internal control. Chloramphenicol acetyltransferase (CA) activity was visualized by PhosphorImager (Molecular Dynamics) and quantitated by ImageQuant software (Molecular Dynamics).

B1: ARA54: 54 kDa protein that interacts with AR in an androgen-dependent manner; AR coactivator (protein)
Chain of AR (P10275 whole entry): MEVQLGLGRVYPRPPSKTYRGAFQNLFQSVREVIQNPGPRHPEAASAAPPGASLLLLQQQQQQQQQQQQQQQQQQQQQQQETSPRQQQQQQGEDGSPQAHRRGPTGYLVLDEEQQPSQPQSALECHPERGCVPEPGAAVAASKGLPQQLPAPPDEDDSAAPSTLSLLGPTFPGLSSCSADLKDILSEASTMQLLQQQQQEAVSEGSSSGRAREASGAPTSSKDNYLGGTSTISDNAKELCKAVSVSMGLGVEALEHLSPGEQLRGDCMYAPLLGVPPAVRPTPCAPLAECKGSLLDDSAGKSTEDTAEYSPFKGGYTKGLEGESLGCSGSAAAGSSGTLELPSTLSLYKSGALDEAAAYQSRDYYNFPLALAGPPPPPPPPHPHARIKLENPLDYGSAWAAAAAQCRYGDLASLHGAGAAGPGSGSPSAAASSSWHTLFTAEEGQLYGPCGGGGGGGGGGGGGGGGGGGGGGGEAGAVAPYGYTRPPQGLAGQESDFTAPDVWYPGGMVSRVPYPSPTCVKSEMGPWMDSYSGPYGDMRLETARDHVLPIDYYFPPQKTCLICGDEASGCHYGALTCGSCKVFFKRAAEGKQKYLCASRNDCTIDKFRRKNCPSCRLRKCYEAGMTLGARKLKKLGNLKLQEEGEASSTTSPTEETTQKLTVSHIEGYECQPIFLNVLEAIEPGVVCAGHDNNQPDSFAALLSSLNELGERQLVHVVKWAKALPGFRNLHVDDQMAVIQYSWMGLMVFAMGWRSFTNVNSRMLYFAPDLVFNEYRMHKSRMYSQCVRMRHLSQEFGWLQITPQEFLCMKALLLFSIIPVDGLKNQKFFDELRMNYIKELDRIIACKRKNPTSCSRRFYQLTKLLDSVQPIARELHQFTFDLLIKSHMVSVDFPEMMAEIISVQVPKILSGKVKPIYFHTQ
chain: MSSEDREAQEDELLALASIYDGDEFRKAESVQGGETRIYLDLPQNFKIFVSGNSNECLQNSGFEYTICFLPPLVLNFELPPDYPSSSPPSFTLSGKWLSPTQLSALCKHLDNLWEEHRGSVVLFAWMQFLKEETLAYLNIVSPFELKIGSQKKVQRRTAQASPNTELDFGGAAGSDVDQEEIVDERAVQDVESLSNLIQEILDFDQAQQIKCFNSKLFLCSICFCEKLGSECMYFLECRHVYCKACLKDYFEIQIRDGQVQCLNCPEPKCPSVATPGQVKELVEAELFARYDRLLLQSSLDLMADVVYCPRPCCQLPVMQEPGCTMGICSSCNFAFCTLCRLTYHGVSPCKVTAEKLMDLRNEYLQADEANKRLLDQRYGKRVIQKALEEMESKEWLEKNSKSCPCCGTPIEKLDGCNKMTCTGCMQYFCWICMGSLSRANPYKHFNDPGSPCFNRLFYAVDVDDDIWEDEVED
Take B1: in assay [1] (DU145 cells, cotransfected with GR), the “induction of GR transcription activity” value is 1.6 fold. Besides, the “enhancement of the transcription activity of AR” value in assay [2] (DU145 cells) is “up to 6 fold”. Besides, in assay [2] (wtAR, DHT 10^−10 to 10^−8 M), the “enhancement of wtAR transactivation by coexpression” value is given as 3-5 fold.

B2: C′-ARA54: C-terminal region (amino acids 361-474) of ARA54 (protein)
chain: RNEYLQADEANKRLLDQRYGKRVIQKALEEMESKEWLEKNSKSCPCCGTPIEKLDGCNKMTCTGCMQYFCWICMGSLSRANPYKHFNDPGSPCFNRLFYAVDVDDDIWEDEVED
modifications: Homo sapien
notes: C-terminal region (amino acids 361-474) of ARA54
Turning to B2, the “effect on fl-ARA54-induced GR transactivation” value in assay [1] (DU145 cells) was “little effect”. For the same molecule, the “effect on GR transactivation” value in assay [1] (PC-3 cell line) is given as “only marginally repressed”. Also, in assay [2] (H1299 cells, endogenous ARA54), the “inhibition of AR-mediated transcription” value was “up to 70%”.
